The text below walks through data of article PMC5882645, “NMR Structure, Dynamics and Interactions of the Integrin β2 Cytoplasmic Tail with Filamin Domain IgFLNa21” (Scientific Reports, 2018).

No end group written: not given here.

Assay [1] concerns the target T1, IgFLNa21 domain of filamin A (Gly2236-Ser2329) (UniProt P21333 2236-2329).
T1 construct: filamin A, Ig-like repeat 21 (IgFLNa21), residues Gly2236-Ser2329; The same range also stands as the C-terminal part of the hybrid chain m5 (cloned in pET14b); the rows on the hybrid use m1 for this domain; also called IgFLNa21 filamin; wild-type IgFLNa21; source: E. coli rosetta, synthetic gene in pET24a, 15N/13C-labelled, purified (Ni-NTA, size-exclusion chromatography)
T1 sequence (looked up): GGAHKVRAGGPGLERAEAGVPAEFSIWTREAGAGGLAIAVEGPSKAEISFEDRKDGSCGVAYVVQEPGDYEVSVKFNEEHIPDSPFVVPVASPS
Put plainly: NMR titration; 15N-1H HSQC of IgFLNa21 (100 μM) with sequential additions of peptide at 1:0, 1:1, 1:2 and 1:3 ratios; 298 K; 25 mM sodium phosphate, 5 mM NaCl, 2 mM DTT, 10% D2O, pH 6.5. As to conditions: both partners purified.

Assay [2] deals with T1, IgFLNa21 domain of filamin A …. As to the kind of experiment: NMR structure; solution structure of the hybrid chain (β2 CT 752-763 joined to IgFLNa21 by the linker …), 300 μM, 298 K; CYANA, refined by X-plor-NIH with explicit water. As to conditions: both partners purified.

B1: Synthetic integrin full-length β2-CT (residues 724-769) (peptide, UniProt P05107 724-769, looked up)
chain: KALIHLSDLREYRRFEKEKLKSQWNNDNPLFKSATTTVMNPKFAES
notes: integrin β2 cytoplasmic tail, residues 724-769; also called full length integrin β2 CT; integrin β2 cytoplasmic tail; source: synthetic peptide, bought: GLBioChem (Shanghai), further purified by reverse phase HPLC
B1: the binding result in assay [1] is on record as “binds”.

B2: C-terminal filamin-binding region (P752-N763) of integrin β2 CT, as it stands in the hybrid IgFLNa21 (peptide)
chain: PLFKSATTTVMN
modifications: also: fused via GASGSGASGS linker to IgFLNa21 N-terminus
notes: also called β2 CT peptide; β2 CT part of hybrid IgFLNa21; source: E. coli rosetta, purified (Ni-NTA, size-exclusion chromatography) as the N-terminal part of the hybrid chain
For the molecule B2, the binding result in assay [2] is “binds”.
